# Experiment: soluble on expression in E. coli; label from the status in PepcDB or PDB records
row,Sequence,soluble on expression in E. coli
1,MGSDKIHHHHHHMVLKVFKDHFGRGYEVYEKSYREKDSLSFFLTKEEEGKILVVAGEKAPEGLSFFKKQRAEGVSFFFCERNHENLEVLRKYFPDLKPVRAGLRASFGTGDRLGITTPAHVRALKDSGLFPIFAQQSVRENERTGRTWRDVLDDATWGVFQEGYSEGFGADADHVKRPEDLVSAAREGFTMFTIDPSDHVRNLSKLTEKERNEKFEEILRKERIDRIYLGKKYSVLGEKIEFDEKNLRDAALVYYDAIAHVDMMYQILKDETPDFDFEVSVDETETPTSPLFHIFVVEELRRRGVEFTNLALRFIGEWEKGIDYKGDLAQFEREIKMHAEIARMFEGYKISLHSGSDKFSVYPAFASATGGLFHVKTAGTSYLEAVKVISMVNPELFREIYRCTLDHFEEDRKSYHISADLSKVPEVEKVKDEDLPGLFEDINVRQLIHVTYGSVLKDASLKERLFKTLEQNEELFYETVAKHIKRHVDLLEG,not soluble
2,MGSDKIHHHHHHMVLNINSFYKNCRGEFMRAVFIYHKNNQRMEKFYKNLLNEPDFCRICDDCYNCRGNWTFKNNVKNIVIEEVYEEFVDNPYDYLPELPEGDICIAQLHEDLLYELPLLLKEKGYKALIVPSETPHDLSLALRRDLKRVCSNYNIEFENPKPFCSLEKKEGNEYINKFIDYFKIGKPELEIEVENGLIKDVKVKISAPCGETYYIAKRLKGKAIDDLKEEIANAHHNYPCLASMEMDKELGDTILHKAGYIAFEVVEKALKK,not soluble
3,MGSDKIHHHHHHMVLSLSSHNVIQYLQEAGLCSSEDDASDKSELPGSSKNNSDLLVTLADNRKLLVKQEHNVKNNDVAPRELFQEWLFHQLLQQFPVLGNISAIAPLVVHFDEENSILVRNYLSEYLKLATFYHNNEIFPQEIATAIGTTLAGLHRATYNRREYRDFMATAPQGEFRYGFYNPAQGVESIGPEIFGTVPTEALKFYLLYQQSESLESAIADLAYDWNPCCLTHNDLKLNNILVHSRWKKLDNCLVRLINWEACSWGDPAFDLGTLLASYLRIWLNSLVVDPTIELQESLHLALTPLESLQPSIIALIRAYLNAFPMILEYRSDFIVRVIQFAGLALIHQIQDMITCRKSFNNTDICMLQVAKSLLTMPQQGVLTIFGISESEILNPVGKVHKLPQPVKEPQLLRLYYEKTRLRGC,not soluble
4,MGSDKIHHHHHHMVLVVDYGSQYSRLITRRIRENEVYSEVVFPDDKVDLSKVDAVILSGGPRSVYEEDAPKLPEWFQEYKGPVLAICYGMQLIVKELGGEVRRGRGEYGRTLVELSRDPIFEGIPEKVHVWMSHGDEVVRLPEGFHPIAVSETGVIAAATDGKRFWLLQFHPEVHHTEYGDRMISNFLFNVCKLEKNWKIGDLVEEKIRHIKETIGNKKAILALSGGVDSSVAAVLVHRAIGKNLVCVFVDHGLLRKNEREEVERVFKEHFDMNLVVVDARKRFLEKLRGVTDPEKKRKIIGEEFIRVFEEEAKKHDVEFLVQGTIYSDVIESAASGKTTAKIKSHHNVGGLPEKMNLKLVEPLRDLFKDEVRKVGKYLGIPDRIINRHPFPGPGLAVRVLGEVTEEKLEILREADYIFIETLRKHDYYDKVWQAFAVLLPIKSVGVKGDARAYEYVVALRAVNSVEGMTADWSRIPHDILDEAARRITREVKGVGRVVYDITSKPPATIEWE,not soluble
5,MGSDKIHHHHHHMVNEKRLLEEFLELVQIDSETKHEAEICKVLKRKFSDLGVDVKEDDTMDITGHGAGNLICTLKGTKQTDTIYFTSHMDTVVPGNGVKPVVENGYVKTDGTTILGADDKAGLAAMFEAIKVLKEENIEHGTIEFIITVGEESGLIGAKALDRPMITASYGYALDSDGKVGNIIVAAPTQAKVRAAIFGKTAHAGVEPEKGISAITIASKAISKMPLGRIDEETTANIGRFEGGTQTNIVCDEVHILAEARSLVPEKMEAQVQKMKAAFEEAAADMGGRAEVEIEVMYPGFKYQDGDQVVEIAKKAAAKIGRPSELQTSGGGSDANVIAGHGIPTVNLAVGYEQIHTKNEKMPIEELVKTAEMVVAIIEEAAK,not soluble
6,MGSDKIHHHHHHMVNFLNEGGYVLDFSTADFDAFTYKSIGVPLCETYRLSKGKSLIAYINDTKYEDKIKLLSDLIRYYELSSMKEHDEENRKSRAVAYKKCRSILDKAGGTMVMTATAETLKEAFDSDYISAQIDLMLNLKDGNPTEAIGKAKELIESCCKTILEFEGCTVDKDWEVPRLVDETFKHFHLMPKNISDDVKGAKSIKAILGNLKAIAQGVAELRNLYGSGHGKSSSYKGLESRHASLAIGSSTTLVRFLWDSYERHHNNEVN,not soluble
7,MGSDKIHHHHHHMVNIEIDEGSGFCFGVTTAIRKAEEELAKGNTLYCLGDIVHNGQECERLKKMGLITINHEEFAQLHDAKVLLRAHGEPPETYAIARTNNIEIIDATCPVVLRLQKRIKQEYDNVPASQDTQIVIYGKNGHAEVLGLVGQTHGKAIVIETPAEAAHLDFTKDIRLYSQTTKSLEEFWQIIEYIKEHISPDATFEYYDTICRQVANRMPNIRKFAAAHDLIFFVCGRKSSNGKILYQECKKINPNSYLIDQPEEIDRNLLEDVRSIGICGATSTPKWLMEECKKAILNEK,not soluble
8,MGSDKIHHHHHHMVRLWLMYKNKEEQANMQVEKDVIYDSAYNLAADLYVPDEANGGAIVYAHGGGWFRGDKENESDLGKYFADAGYLFTIPNFRLAPKYLYPTAQNDFDHFINWLLASPYDFDRERLGLLGASSGGTMVLQNSLASGYPLVAWSPVVDFANWVQKNQMVKASVDGKKELGLTEIHEIHDSFYKYFVQTYLGGLDPRLLTAVNPTNHLTDQLGPALLFNSADELMPLPSALHFLQQAAMFGRDIGLHVVPGTGHARDYTSFALPETKRFFDHHLFTTVEDKTLNKATD,not soluble
9,MGSDKIHHHHHHMVSMIKTAQGYSSELTRDQSELTQFWSQVQQESLAIEPGITLAYGFIRHEDNRRAIVISNGRVESYLKYQELIYDCYQQGFSVYALDHRGQGLSSRLTTNPHQGHVEHFSDYVDDFKVFIERVVKPERHKELFLVGHSMGGAIATHYIHQDPTTFNAAVLSAPMYGIILPLPTVVIKQLATKMINTQPVIGSHLVATNYIIGGRDYQAISFKLNQLTHSQVRYQHYRDLYQQQPQCQLGSPTNQWLAEAIDAAKASIDMARGSPIPLLILQAGKDKIVCNQAQNKALAGLCQRIIIEGAFHEVFIETDKLRDKALKALFDFINQHSEII,not soluble
10,MGSDKIHHHHHHMVTLVRQVEIQPYQPKYAQAVSELFHLCVHNIEHERYSQAQLNAWSKAPRSAKHWHLRLSRSQAWIILVTSTESLSKICVGFINVETDYYHRGYIDSFYIHPDWQRQGVGGRVYCELEQWARGQGYASLSVDASYLSKGLFTQLGFVQIQRNYQQKLGQVLTSFYMTKKL,not soluble
11,MGSDKIHHHHHHMVVNMFEDIDTFEEAFNKLLREVLEFDLQNPFKDAKKVLCIEPHPDDCVIGMGGTIKKLSDMGVEVIYVCMTDGYMGTTDESLSGHELAAIRRKEEEESARLLGVKKIYWLNYRDTELPYSREVRKDLTKILRKEQPDGVFAPDPWLPYESHPDHRRTGFLAIESVAFSQLPNFSNTDLDIGLNPYNSGSFIALYYTHKPNYIVDITDLMELKLKAIRVHRSQFPDDIWEKWEPFLRTIAMFYGEKIGVRYGEGFRIMPGLFYHITPFTDLI,not soluble
12,MGSDKIHHHHHHMVWRDAEGQVHALEDRCPHRGARLSLGWNLGDRVACWYHGVEVRADGVVADVPAVHECPMTGTKCLKSYPVIEQHGAIFIWFGIDANEQPAPLEFPEQLASEEWSSFLCQADWKVNHQYAIDNVMDPMHGTYLHCTSHSMAEGERTAEMKHRTTENGFVFEKEGQTGVNFDWVEYGSTGASWLRLSIPYRKQFGPGGEFWIVGYATPIDANNTRVFFWRCRKVSGWQRNVWRFLYRNHLEQLHWDVLEQDRIILENLAPNARAREFLYQHDVGLARLRRLMKKEAEKQLKKIAALNASNRIEMQEEAHG,not soluble
13,MGSDKIHHHHHHMVWRDLLEVIYKLDPKPGLGLEIAKHVQPKHLGIIAYLALSCDNLGEALIRYHDFHRLIYDGSPLVVELQGRYGSIRWEATELHPTQLTDEIAIALVIQFLRLFMSHEDVQLHEVRFLNAAPKNIRVYEQYFQCPVRFSQPRTELLIPITEIHKPLSSADHTLQQLLVQQAQALLEQLPNSTQLDQRLQHSILTGLQKNQYQIEYIAAQLGLSVRQLQRHLQQQSTTFQERVQQVRFMLATEYLKDPHLSLQEIALLLCYSEQSAFQRAFKHWTKQTPQQWRDQFLDKE,not soluble
14,MGSDKIHHHHHHMWENFLFSVDRKETTMSMRLLARKMLFMRGASWQHPVIRLGLTALDPVDAIIRSATGLRSLPRYSTRVRSNGLSNQFGGGKFARQGRVILHMLQRHCALSPKSRVLEIGCGCGRTAVQLASFLEAEKYVGMDIEMVSLEACRDNPHLKRRGFKFDLIDIQNNEYNPKGRFRADEYRFSYLDGSMDCVFLISVFTHMLPEDVSNYVTEIGRMLDRGGMCLFSTFLIDHGRGGRGLNFAHDGNGFSYYDVRMPEIAVAYPQRFFEDSFGRAGLVLHEVKLGSWRDDGRGSYPEFGQDVLVFKKAA,not soluble
15,MGSDKIHHHHHHMWSFKSMFNTPEDPEKDAYEFYGKVQPGITTPTQKTCNFVALDLKSKDRDAIKAMFKKWTVMADRMMDGDTVGKTSNNPLMPPVDTGESIGLGASKLTITFGISKSLMKKIGLSSKIPDAFKDLPHFPNDQLIDDYSDGDIMIQACSNDSQVSFHAVHNLVRPFRDIVKVRWAQSGFISAKGKETPRNLMAFKDGTINPRKSNQLKDYVFIDDGWAKHGTYCVVRRIQIHIETWDRTALEEQEATFGRKRHSGAPLTGGKEFDEIDLKAKDSHGEYIIDKDAHTRLAKEANTSILRRAFNYVDGTDDRTGNFETGLLFIAFQKATKQFIDIQNNLGSNDKLNEYITHRGSASFLVLPGVSKGGYLGETLFD,not soluble
16,MGSDKIHHHHHHMWTPMRDGPPKGMHGGKSERPISPRMKPSGLRIWTGSPRAANSERASDEALSCTHIQTCVARLRDTFPSGTVERGQHGGTTVNLIDGIKGNRFAVFGRAGMDMFADPIGTKSEDATTFRADLGGSSANICAGLVKLGAEAALVTSVSDDAVGRFCVNRLRDYGVETRYVRAVGGEARTSLAVYESRIDDFQNVIYRNGAADFQVTKADMDAVDYSAFSALITAGTVFAAEPSRSATFRAFEHARTAGLPVIFDIDYRPYSWPSPEVASEVLTRAGEASDLIVGNDEEFGFMAGHIDKGLEKARALAAQGRMVIYKMGEAGAITIAEGQEIRTGIYPVTAVKPNGAGDSFMAGLLASIAQGHALSDAVLRGSACASIVVSQPGCANAMPTTAELEAFLASHPGPTV,not soluble
17,MGSDKIHHHHHHMYLDVIEPDHPDYLTALLVKADLYDTEGLTEVAREKLLEASQISQEPLVIFGLAEIEMNLSDFQAAIQHYAQLDNRAILEETGVSTYERIGRAYASLGKFETAIEFLEKAVEIEFDETTVFEVATLLYDQEEYQRANLYFKQLDSMNPDFAGYEYNYALSLHAEHQTKQALRMLQQGLSKNEFDSQLLLLASQLSYELHDKKAAENYLLKVLETAEDDEEALMRLSNLYLEENRFEDVINLDRADIDSVLTKWNIAKAYQKLEADTKALEIYDTLIVDLADNPDFLKDYIYILRKFGYDEKVKTFADKYLQLVPDDNDIADLREQLQ,not soluble
